# Experimental data as given in patent US20160002355A1 (Genentech, published 2016).
# How the values were obtained:
# [1] = molecular target: T1, anti-Complex I antibody (anti-HCMV antibody); assay: anti-CI clinical PK ELISA; coat 4.25B10.15 0.75 ug/mL; 8G8 1 ug/mL; against unspiked human serum
# T1 construct: also called anti-CI; anti-CI antibody
# Method: (§1) Microtiter plates are coated overnight at 2-8° C. with 100 μl per well of 0.75 μg/ml anti-CI idiotypic antibody (in 0.05 M sodium carbonate buffer, pH 9.6±0.1). The plates are washed three times with 400 μl per well per cycle of wash buffer. 200 μl per well of blocking buffer (PBS/0.5% BSA/0.05% polysorbate 20/0.05% ProClin 300, pH 7.4±0.1) is added, and the plates are incubated at room temperature with shaking for 1-3 hours. Standard curves are prepared with standard/sample diluent (assay diluent with 0.5% normal pooled human serum; assay diluent is composed of PBS/0.5% BSA/0.05% polysorbate-20/0.35 M NaCl/0.25% CHAPS/5mM EDTA/0.05% ProClin 300, pH 7.4±0.1). The plates are washed three times with 400 μl per well per cycle of wash buffer. Diluted standards, controls and samples are added to plates at 100 μl per well, in duplicate. The plates are incubated at room temperature with shaking for 2 hours +10 minutes. The plates arc washed four times with 400 μl per well per cycle of wash buffer. HRP conjugates diluted in conjugate buffer (PBS/0.5% BSA/0.05% polysorbate 20/0.05% ProClin 300, pH 7.4±0.1) are added at 100 μl per well. […] The plates are read using a 450 nm read wavelength and a 620 or 630 nm reference wavelength. […]
# [2] = molecular target: T1, anti-Complex I antibody (anti-HCMV …); assay: anti-CI clinical PK ELISA; coat 4.25B10.15 0.75 ug/mL; 8G8 4 ug/mL; against unspiked human serum
# Method: as §1
# [3] = molecular target: T1, anti-Complex I antibody (anti-HCMV …); assay: anti-CI clinical PK ELISA; coat 4.25B10.15 0.75 ug/mL; 8G8 0.5 ug/mL; against unspiked human serum
# Method: as §1
# [4] = molecular target: T1, anti-Complex I antibody (anti-HCMV …); assay: anti-CI clinical PK ELISA standard curve; anti-CI 5 ug/mL in 0.5% human serum pool; against background
# Method: as §1
# [5] = molecular target: T1, anti-Complex I antibody (anti-HCMV …); assay: anti-CI clinical PK ELISA; coat 4.25B10.15 0.75 ug/mL; 8G8 0.125 ug/mL; against unspiked human serum
# Method: as §1
# [6] = molecular target: T1, anti-Complex I antibody (anti-HCMV …); assay: anti-CI clinical PK ELISA; coat 4.25B10.15 0.5 ug/mL; 8G8 0.5 ug/mL; against unspiked human serum
# Method: as §1, with “The” for “Microtiter plates are coated overnight at 2-8° C. with 100 μl per well of 0.75 μg/ml anti-CI idiotypic antibody (in 0.05 M sodium carbonate buffer, pH 9.6±0.1). The”, “well. The plates are incubated at room temperature with shaking for 1 hour±5 minutes, following which the plates are washed four times with 400 μl per well per cycle of wash buffer.” for “well.”
# [7] = molecular target: T1, anti-Complex I antibody (anti-HCMV …); assay: anti-CI clinical PK ELISA; coat 4.25B10.15 0.5 ug/mL; 8G8 0.125 ug/mL; against unspiked human serum
# Method: as §1, with “The” for “Microtiter plates are coated overnight at 2-8° C. with 100 μl per well of 0.75 μg/ml anti-CI idiotypic antibody (in 0.05 M sodium carbonate buffer, pH 9.6±0.1). The”, “well. The plates are incubated at room temperature with shaking for 1 hour±5 minutes, following which the plates are washed four times with 400 μl per well per cycle of wash buffer.” for “well.”
# [8] = molecular target: T1, anti-Complex I antibody (anti-HCMV …); assay: anti-CI clinical PK ELISA; coat 4.25B10.15 0.5 ug/mL; 8G8 4 ug/mL; against unspiked human serum
# Method: as §1, with “The” for “Microtiter plates are coated overnight at 2-8° C. with 100 μl per well of 0.75 μg/ml anti-CI idiotypic antibody (in 0.05 M sodium carbonate buffer, pH 9.6±0.1). The”, “well. The plates are incubated at room temperature with shaking for 1 hour±5 minutes, following which the plates are washed four times with 400 μl per well per cycle of wash buffer.” for “well.”
# [9] = molecular target: T1, anti-Complex I antibody (anti-HCMV …); assay: anti-CI clinical PK ELISA; coat 4.25B10.15 0.75 ug/mL; 8G8 16 ug/mL; against unspiked human serum
# Method: as §1
# [10] = molecular target: T1, anti-Complex I antibody (anti-HCMV …); assay: anti-CI clinical PK ELISA; coat 4.25B10.15 0.5 ug/mL; 8G8 16 ug/mL; against unspiked human serum
# Method: as §1, with “The” for “Microtiter plates are coated overnight at 2-8° C. with 100 μl per well of 0.75 μg/ml anti-CI idiotypic antibody (in 0.05 M sodium carbonate buffer, pH 9.6±0.1). The”, “well. The plates are incubated at room temperature with shaking for 1 hour±5 minutes, following which the plates are washed four times with 400 μl per well per cycle of wash buffer.” for “well.”
# [11] = molecular target: T1, anti-Complex I antibody (anti-HCMV …); assay: anti-CI clinical PK ELISA; coat 4.25B10.15 0.5 ug/mL; 8G8 0.25 ug/mL; against unspiked human serum
# Method: as §1, with “The” for “Microtiter plates are coated overnight at 2-8° C. with 100 μl per well of 0.75 μg/ml anti-CI idiotypic antibody (in 0.05 M sodium carbonate buffer, pH 9.6±0.1). The”, “well. The plates are incubated at room temperature with shaking for 1 hour±5 minutes, following which the plates are washed four times with 400 μl per well per cycle of wash buffer.” for “well.”
# [12] = molecular target: T1, anti-Complex I antibody (anti-HCMV …); assay: anti-CI clinical PK ELISA; coat 4.25B10.15 0.75 ug/mL; 8G8 8 ug/mL; against unspiked human serum
# Method: as §1
# [13] = molecular target: T1, anti-Complex I antibody (anti-HCMV …); assay: anti-CI clinical PK ELISA; coat 4.25B10.15 1 ug/mL; 8G8 16 ug/mL; against unspiked human serum
# Method: as §1, with “The” for “Microtiter plates are coated overnight at 2-8° C. with 100 μl per well of 0.75 μg/ml anti-CI idiotypic antibody (in 0.05 M sodium carbonate buffer, pH 9.6±0.1). The”, “well. The plates are incubated at room temperature with shaking for 1 hour±5 minutes, following which the plates are washed four times with 400 μl per well per cycle of wash buffer.” for “well.”
# [14] = molecular target: T1, anti-Complex I antibody (anti-HCMV …); assay: anti-CI clinical PK ELISA; coat 4.25B10.15 0.75 ug/mL; 8G8 0.25 ug/mL; against unspiked human serum
# Method: as §1
# [15] = molecular target: T1, anti-Complex I antibody (anti-HCMV …); assay: Biacore
# [16] = molecular target: T1, anti-Complex I antibody (anti-HCMV …); assay: anti-CI clinical PK ELISA; coat 4.25B10.15 1 ug/mL; 8G8 4 ug/mL; against unspiked human serum
# Method: as §1, with “The” for “Microtiter plates are coated overnight at 2-8° C. with 100 μl per well of 0.75 μg/ml anti-CI idiotypic antibody (in 0.05 M sodium carbonate buffer, pH 9.6±0.1). The”, “well. The plates are incubated at room temperature with shaking for 1 hour±5 minutes, following which the plates are washed four times with 400 μl per well per cycle of wash buffer.” for “well.”
# [17] = molecular target: T1, anti-Complex I antibody (anti-HCMV …); assay: anti-CI clinical PK ELISA; coat 4.25B10.15 0.5 ug/mL; 8G8 1 ug/mL; against unspiked human serum
# Method: as §1, with “The” for “Microtiter plates are coated overnight at 2-8° C. with 100 μl per well of 0.75 μg/ml anti-CI idiotypic antibody (in 0.05 M sodium carbonate buffer, pH 9.6±0.1). The”, “well. The plates are incubated at room temperature with shaking for 1 hour±5 minutes, following which the plates are washed four times with 400 μl per well per cycle of wash buffer.” for “well.”
# [18] = molecular target: T1, anti-Complex I antibody (anti-HCMV …); assay: anti-CI clinical PK ELISA standard curve; anti-CI 1.25 ug/mL in 0.5% human serum pool; against background
# Method: as §1
# [19] = molecular target: T1, anti-Complex I antibody (anti-HCMV …); assay: anti-CI clinical PK ELISA; coat 4.25B10.15 1 ug/mL; 8G8 0.125 ug/mL; against unspiked human serum
# Method: as §1, with “The” for “Microtiter plates are coated overnight at 2-8° C. with 100 μl per well of 0.75 μg/ml anti-CI idiotypic antibody (in 0.05 M sodium carbonate buffer, pH 9.6±0.1). The”, “well. The plates are incubated at room temperature with shaking for 1 hour±5 minutes, following which the plates are washed four times with 400 μl per well per cycle of wash buffer.” for “well.”
# [20] = molecular target: T1, anti-Complex I antibody (anti-HCMV …); assay: anti-CI clinical PK ELISA standard curve; anti-CI 2.5 ug/mL in 0.5% human serum pool; against background
# Method: as §1
# [21] = molecular target: T1, anti-Complex I antibody (anti-HCMV …); assay: anti-CI clinical PK ELISA standard curve; anti-CI 0.156 ug/mL in 0.5% human serum pool; against background
# Method: as §1
# [22] = molecular target: T1, anti-Complex I antibody (anti-HCMV …); assay: anti-CI clinical PK ELISA; coat 4.25B10.15 1 ug/mL; 8G8 0.5 ug/mL; against unspiked human serum
# Method: as §1, with “The” for “Microtiter plates are coated overnight at 2-8° C. with 100 μl per well of 0.75 μg/ml anti-CI idiotypic antibody (in 0.05 M sodium carbonate buffer, pH 9.6±0.1). The”, “well. The plates are incubated at room temperature with shaking for 1 hour±5 minutes, following which the plates are washed four times with 400 μl per well per cycle of wash buffer.” for “well.”
# [23] = molecular target: T1, anti-Complex I antibody (anti-HCMV …); assay: anti-CI clinical PK ELISA; coat 4.25B10.15 1 ug/mL; 8G8 1 ug/mL; against unspiked human serum
# Method: as §1, with “The” for “Microtiter plates are coated overnight at 2-8° C. with 100 μl per well of 0.75 μg/ml anti-CI idiotypic antibody (in 0.05 M sodium carbonate buffer, pH 9.6±0.1). The”, “well. The plates are incubated at room temperature with shaking for 1 hour±5 minutes, following which the plates are washed four times with 400 μl per well per cycle of wash buffer.” for “well.”
# [24] = molecular target: T1, anti-Complex I antibody (anti-HCMV …); assay: anti-CI clinical PK ELISA; coat 4.25B10.15 0.5 ug/mL; 8G8 8 ug/mL; against unspiked human serum
# Method: as §1, with “The” for “Microtiter plates are coated overnight at 2-8° C. with 100 μl per well of 0.75 μg/ml anti-CI idiotypic antibody (in 0.05 M sodium carbonate buffer, pH 9.6±0.1). The”, “well. The plates are incubated at room temperature with shaking for 1 hour±5 minutes, following which the plates are washed four times with 400 μl per well per cycle of wash buffer.” for “well.”
# [25] = molecular target: T1, anti-Complex I antibody (anti-HCMV …); assay: anti-CI clinical PK ELISA standard curve; anti-CI 20 ug/mL in 0.5% human serum pool; against background
# Method: as §1
# [26] = molecular target: T1, anti-Complex I antibody (anti-HCMV …); assay: anti-CI clinical PK ELISA standard curve; anti-CI 10 ug/mL in 0.5% human serum pool; against background
# Method: as §1
# [27] = molecular target: T1, anti-Complex I antibody (anti-HCMV …); assay: anti-CI clinical PK ELISA standard curve; anti-CI 0.625 ug/mL in 0.5% human serum pool; against background
# Method: as §1
# [28] = molecular target: T1, anti-Complex I antibody (anti-HCMV …); assay: anti-CI clinical PK ELISA; coat 4.25B10.15 1 ug/mL; 8G8 8 ug/mL; against unspiked human serum
# Method: as §1, with “The” for “Microtiter plates are coated overnight at 2-8° C. with 100 μl per well of 0.75 μg/ml anti-CI idiotypic antibody (in 0.05 M sodium carbonate buffer, pH 9.6±0.1). The”, “well. The plates are incubated at room temperature with shaking for 1 hour±5 minutes, following which the plates are washed four times with 400 μl per well per cycle of wash buffer.” for “well.”
# [29] = molecular target: T1, anti-Complex I antibody (anti-HCMV …); assay: anti-CI clinical PK ELISA; coat 4.25B10.15 1 ug/mL; 8G8 0.25 ug/mL; against unspiked human serum
# Method: as §1, with “The” for “Microtiter plates are coated overnight at 2-8° C. with 100 μl per well of 0.75 μg/ml anti-CI idiotypic antibody (in 0.05 M sodium carbonate buffer, pH 9.6±0.1). The”, “well. The plates are incubated at room temperature with shaking for 1 hour±5 minutes, following which the plates are washed four times with 400 μl per well per cycle of wash buffer.” for “well.”
# [30] = molecular target: T1, anti-Complex I antibody (anti-HCMV …); assay: anti-CI clinical PK ELISA standard curve; anti-CI 0.313 ug/mL in 0.5% human serum pool; against background
# Method: as §1
# T1 sequence (VH, as listed by the source, chain 1 of 2): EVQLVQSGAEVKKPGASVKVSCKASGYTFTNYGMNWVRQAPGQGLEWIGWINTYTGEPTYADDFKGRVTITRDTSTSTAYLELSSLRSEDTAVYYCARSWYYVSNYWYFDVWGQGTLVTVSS
# T1 sequence (VL, as listed by the source, chain 2 of 2): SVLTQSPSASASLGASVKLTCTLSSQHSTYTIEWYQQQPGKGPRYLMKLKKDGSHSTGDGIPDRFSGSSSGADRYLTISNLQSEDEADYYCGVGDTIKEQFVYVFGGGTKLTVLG
binder,measurement,setting,value
"murine mAb 4.25B10.15 (antibody, IgG1, V domains shown, also called anti-CI idiotypic antibody; anti-CI anti-ID mAb) VH: QVQLQQSGAELVRPGTSVKVSCKASGYAFTNYLIEWVKQRPGQGLEWIGVINPGSGGTNYNEKFEAKATLTADKSSSTAYMQLSSLTSDDSAVYFCARHGSSYWYFDVWGAGTTVTVSS VL: DIVMTQSPATLSVTPGDRVSLSCRASQSISDYLHWYQQKSHESPRLLIKYASQSISGIPSRFSGSGSGSDFTLSINSVEPEDVGVYYCQNGHSFPYTFGGGTKLEIK",Signal/bkgd ratio,[1],5.3 ratio
same,Signal/bkgd ratio,[2],13.3 ratio
same,Signal/bkgd ratio,[3],3.2 ratio
same,S/B ratio,[4],13.6 ratio
same,Signal/bkgd ratio,[5],1.5 ratio
same,Signal/bkgd ratio,[6],2.7 ratio
same,Signal/bkgd ratio,[7],1.4 ratio
same,Signal/bkgd ratio,[8],10.4 ratio
same,Signal/bkgd ratio,[9],19.1 ratio
same,Signal/bkgd ratio,[10],14.7 ratio
same,Signal/bkgd ratio,[11],1.8 ratio
same,Signal/bkgd ratio,[12],16.5 ratio
same,Signal/bkgd ratio,[13],13.8 ratio
same,Signal/bkgd ratio,[14],2.1 ratio
same,Kd,[15],4.7 nM
same,Signal/bkgd ratio,[16],10 ratio
same,Signal/bkgd ratio,[17],4.3 ratio
same,S/B ratio,[18],4.9 ratio
same,Signal/bkgd ratio,[19],1.4 ratio
same,S/B ratio,[20],8.4 ratio
same,S/B ratio,[21],1.5 ratio
same,Signal/bkgd ratio,[22],2.7 ratio
same,Signal/bkgd ratio,[23],4.4 ratio
same,Signal/bkgd ratio,[24],12.3 ratio
same,S/B ratio,[25],22.3 ratio
same,S/B ratio,[26],19.6 ratio
same,S/B ratio,[27],3 ratio
same,Signal/bkgd ratio,[28],13 ratio
same,Signal/bkgd ratio,[29],1.9 ratio
same,S/B ratio,[30],2 ratio
